± gives the uncertainty stated by the source.
B1: SH3 and PX domain-containing protein 2B, residues 155 to 209; numbered along this chain, A1X283 (parent)
chain: EQYVVVANYQKQESSEISLSVGQVVDIIEKNESGWWFVSTAEEQGWVPATCLEGQ

Variants of: B1
Test: abundance fitness (aPCA) (normalised: wild type 0, dead -1); higher = more abundant; growth selection in yeast, the domain comes from the species named
Details: Homo sapiens

Variant	abundance fitness
D26Y	-0.272 ± 0.18
I27A	0.037 ± 0.13
I27C	-0.001 ± 0.093
I27D	-1.05 ± 0.22
I27E	-0.944 ± 0.16
I27F	-0.145 ± 0.19
I27G	-0.351 ± 0.073
I27H	-0.908 ± 0.23
I27K	-0.617 ± 0.21
I27L	-0.099 ± 0.067
I27M	-0.185 ± 0.11
I27N	-0.899 ± 0.19
I27P	-0.008 ± 0.13
I27Q	-0.609 ± 0.19
I27R	-0.277 ± 0.058
I27S	-0.404 ± 0.085
I27T	-0.183 ± 0.092
I27V	0.055 ± 0.071
I27W	-0.477 ± 0.1
I27Y	-0.149 ± 0.21
I28A	-0.319 ± 0.073
I28C	-0.13 ± 0.2
I28D	-0.451 ± 0.1
I28E	-0.475 ± 0.13

Variant	abundance fitness
I28F	-0.214 ± 0.12
I28G	-0.211 ± 0.059
I28H	-0.052 ± 0.23
I28K	-0.008 ± 0.14
I28L	-0.041 ± 0.11
I28M	-0.125 ± 0.12
I28N	-0.229 ± 0.17
I28P	-0.822 ± 0.19
I28Q	-0.042 ± 0.15
I28R	-0.211 ± 0.073
I28S	-0.337 ± 0.087
I28T	-0.116 ± 0.11
I28V	0.027 ± 0.073
I28Y	-0.462 ± 0.21
E29A	-0.056 ± 0.08
E29C	-0.205 ± 0.082
E29D	-0.104 ± 0.2
E29F	-0.691 ± 0.36
E29G	-0.19 ± 0.077
E29H	0.056 ± 0.28
E29I	0.133 ± 0.17
E29K	0.022 ± 0.11
E29L	-0.123 ± 0.088
E29M	-0.417 ± 0.12

Variant	abundance fitness
E29N	0.021 ± 0.16
E29P	-0.974 ± 0.26
E29Q	0.05 ± 0.11
E29R	0.084 ± 0.079
E29S	-0.114 ± 0.07
E29T	-0.037 ± 0.093
E29V	-0.258 ± 0.073
E29W	-0.097 ± 0.088
E29Y	-0.502 ± 0.18
K30D	-0.767 ± 0.18
K30E	-0.17 ± 0.14
K30F	-0.357 ± 0.11
K30G	-0.398 ± 0.08
K30I	-0.276 ± 0.14
K30L	-0.548 ± 0.16
K30P	-0.495 ± 0.15
K30Q	-0.027 ± 0.15
K30R	-0.049 ± 0.077
K30T	-0.008 ± 0.15
K30V	-0.273 ± 0.076
K30W	-0.58 ± 0.16
K30Y	0.029 ± 0.28
N31A	-0.114 ± 0.075
N31C	0.035 ± 0.087

Variant	abundance fitness
N31D	-0.116 ± 0.077
N31E	-0.122 ± 0.094
N31F	-0.259 ± 0.12
N31H	-0.095 ± 0.13
N31I	-0.401 ± 0.11
N31K	-0.028 ± 0.13
N31L	-0.092 ± 0.083
N31M	-0.009 ± 0.1
N31P	-0.194 ± 0.1
N31Q	-0.188 ± 0.17
N31R	-0.007 ± 0.072
N31T	-0.154 ± 0.1
N31V	-0.158 ± 0.08
N31W	-0.367 ± 0.12
N31Y	-0.255 ± 0.11
E32A	0.027 ± 0.075
E32C	-0.152 ± 0.11
E32D	-0.047 ± 0.09
E32G	0.001 ± 0.061
E32H	-0.139 ± 0.13
E32I	-0.066 ± 0.19
E32K	-0.326 ± 0.13
E32M	-0.188 ± 0.11
E32N	-0.078 ± 0.15

Variant	abundance fitness
E32P	-0.084 ± 0.083
E32Q	0.001 ± 0.12
E32R	-0.108 ± 0.064
E32S	-0.07 ± 0.071
E32T	-0.122 ± 0.16
E32V	0.038 ± 0.082
E32W	-0.353 ± 0.1
E32Y	-0.345 ± 0.15
S33C	-0.266 ± 0.14
S33D	0.095 ± 0.1
S33E	-0.002 ± 0.12
S33F	-0.229 ± 0.13
S33G	-0.088 ± 0.072
S33H	-0.046 ± 0.13
S33I	-0.393 ± 0.13
S33K	0.058 ± 0.11
S33L	-0.242 ± 0.094
S33M	-0.272 ± 0.14
S33N	-0.09 ± 0.14
S33P	-0.5 ± 0.13
S33Q	0.074 ± 0.19
S33T	-0.086 ± 0.098
S33V	-0.212 ± 0.077
S33W	-0.387 ± 0.12

Variant	abundance fitness
S33Y	-0.074 ± 0.11
G34A	-0.189 ± 0.075
G34D	-0.125 ± 0.091
G34E	-0.147 ± 0.081
G34F	-0.598 ± 0.16
G34H	-0.327 ± 0.14
G34I	-0.579 ± 0.15
G34K	-0.169 ± 0.14
G34L	-0.423 ± 0.078
G34M	-0.216 ± 0.1
G34N	-0.538 ± 0.22
G34P	-0.249 ± 0.1
G34Q	-0.458 ± 0.2
G34R	-0.306 ± 0.07
G34S	-0.208 ± 0.083
G34T	-0.393 ± 0.092
G34V	-0.676 ± 0.11
G34W	-0.708 ± 0.13
G34Y	-0.492 ± 0.16
W35A	-0.172 ± 0.072
W35C	-0.062 ± 0.089
W35D	-0.182 ± 0.14
W35E	-0.173 ± 0.1
W35F	-0.005 ± 0.23

Variant	abundance fitness
W35G	-0.398 ± 0.074
W35H	0.013 ± 0.12
W35I	-0.195 ± 0.13
W35L	-0.073 ± 0.069
W35M	0.027 ± 0.085
W35N	-0.193 ± 0.18
W35P	-0.621 ± 0.1
W35Q	0.04 ± 0.14
W35R	0.045 ± 0.073
W35S	-0.04 ± 0.066
W35T	-0.191 ± 0.09
W35V	-0.118 ± 0.07
W35Y	-0.22 ± 0.15
W36A	-0.104 ± 0.084
W36C	-0.11 ± 0.13
W36D	-0.403 ± 0.096
W36F	0.083 ± 0.1
W36G	-0.767 ± 0.085
W36H	-0.429 ± 0.17
W36I	-0.139 ± 0.16
W36K	-0.889 ± 0.27
W36L	-0.2 ± 0.078
W36M	-0.202 ± 0.13
W36N	-0.367 ± 0.17

Variant	abundance fitness
W36Q	-0.71 ± 0.12
W36R	-0.462 ± 0.084
W36S	-0.211 ± 0.079
W36T	-0.234 ± 0.098
W36V	0.009 ± 0.072
W36Y	-0.099 ± 0.11
F37A	-0.174 ± 0.081
F37C	-0.127 ± 0.15
F37D	-0.347 ± 0.15
F37E	-0.237 ± 0.11
F37H	-0.068 ± 0.12
F37I	-0.181 ± 0.15
F37K	0.066 ± 0.14
F37L	0.03 ± 0.087
F37M	-0.069 ± 0.12
F37Q	0.036 ± 0.13
F37R	0.06 ± 0.07
F37S	-0.109 ± 0.072
F37T	-0.472 ± 0.15
F37Y	0.061 ± 0.17
V38A	-0.07 ± 0.068
V38C	-0.298 ± 0.16
V38D	-0.736 ± 0.14
V38E	-0.76 ± 0.12

Variant	abundance fitness
V38F	-0.915 ± 0.18
V38G	-0.363 ± 0.068
V38H	-1.13 ± 0.3
V38I	-0.319 ± 0.15
V38K	-1.03 ± 0.2
V38L	-0.736 ± 0.088
V38N	-0.895 ± 0.33
V38P	-1.14 ± 0.27
V38Q	-1.08 ± 0.22
V38R	-0.963 ± 0.1
V38T	-0.875 ± 0.13
V38W	-1.02 ± 0.28
V38Y	-0.921 ± 0.29
S39A	-0.08 ± 0.083
S39C	-0.022 ± 0.11
S39D	-0.113 ± 0.11
S39E	0.013 ± 0.093
S39F	-0.241 ± 0.1
S39G	-0.107 ± 0.06
S39I	-0.297 ± 0.11
S39K	-0.035 ± 0.13
S39L	-0.329 ± 0.085
S39M	-0.018 ± 0.11
S39N	-0.022 ± 0.14

Variant	abundance fitness
S39P	-0.864 ± 0.23
S39R	-0.009 ± 0.058
S39T	-0.039 ± 0.095
S39V	-0.414 ± 0.1
S39W	-0.371 ± 0.09
S39Y	-0.312 ± 0.14
T40A	-0.124 ± 0.07
T40C	-0.201 ± 0.12
T40D	-0.234 ± 0.099
T40E	-0.337 ± 0.095
T40F	0.02 ± 0.11
T40G	-0.19 ± 0.059
T40H	-0.15 ± 0.16
T40I	-0.121 ± 0.11
T40K	-0.035 ± 0.11
T40L	-0.031 ± 0.071
T40M	-0.065 ± 0.14
T40N	-0.137 ± 0.17
T40P	-0.699 ± 0.14
T40Q	0.063 ± 0.11
T40S	0.015 ± 0.075
T40V	-0.042 ± 0.061
T40W	-0.354 ± 0.098
T40Y	-0.151 ± 0.18

Variant	abundance fitness
A41D	-0.273 ± 0.13
A41E	0.069 ± 0.093
A41F	-0.113 ± 0.15
A41G	-0.122 ± 0.077
A41H	-0.009 ± 0.1
A41I	0.045 ± 0.22
A41K	-0.157 ± 0.11
A41L	-0.041 ± 0.071
A41M	-0.084 ± 0.11
A41N	-0.244 ± 0.14
A41Q	-0.133 ± 0.15
A41S	0.034 ± 0.073
A41T	0.015 ± 0.078
A41V	-0.127 ± 0.07
A41W	-0.376 ± 0.1
E42A	-0.057 ± 0.077
E42C	-0.064 ± 0.092
E42D	0.086 ± 0.082
E42G	-0.037 ± 0.061
E42H	0.063 ± 0.37
E42I	-0.387 ± 0.14
E42K	-0.057 ± 0.12
E42M	-0.048 ± 0.13
E42P	-0.431 ± 0.097

Variant	abundance fitness
E42Q	0.019 ± 0.12
E42S	0.07 ± 0.071
E42W	-0.118 ± 0.079
E42Y	-0.163 ± 0.14
E43A	-0.038 ± 0.087
E43D	0.087 ± 0.25
E43F	-0.265 ± 0.14
E43G	0.041 ± 0.063
E43H	-0.021 ± 0.15
E43I	-0.155 ± 0.14
E43K	-0.167 ± 0.26
E43L	-0.263 ± 0.076
E43M	-0.117 ± 0.13
E43N	0.017 ± 0.14
E43P	-0.856 ± 0.2
E43Q	0.065 ± 0.21
E43R	-0.111 ± 0.067
E43S	0.033 ± 0.098
E43T	-0.033 ± 0.12
E43V	-0.093 ± 0.073
E43W	-0.31 ± 0.15
E43Y	-0.221 ± 0.16
Q44A	-0.187 ± 0.1
Q44C	-0.216 ± 0.13

Variant	abundance fitness
Q44D	-0.14 ± 0.11
Q44E	-0.143 ± 0.12
Q44F	-0.207 ± 0.19
Q44G	-0.151 ± 0.061
Q44H	-0.085 ± 0.18
Q44I	-0.208 ± 0.28
Q44K	-0.106 ± 0.12
Q44L	-0.337 ± 0.089
Q44M	-0.122 ± 0.13
Q44P	-0.807 ± 0.22
Q44R	0.001 ± 0.06
Q44S	-0.136 ± 0.074
Q44T	-0.101 ± 0.11
Q44V	-0.225 ± 0.1
Q44Y	-0.376 ± 0.19
G45A	-0.604 ± 0.11
G45C	-0.779 ± 0.14
G45D	-0.964 ± 0.18
G45E	-1.21 ± 0.2
G45F	-0.744 ± 0.14
G45H	-0.815 ± 0.35
G45I	-0.643 ± 0.17
G45K	-0.547 ± 0.15
G45L	-0.444 ± 0.085

Variant	abundance fitness
G45M	-0.632 ± 0.13
G45N	-0.95 ± 0.43
G45P	-1.19 ± 0.26
G45Q	-0.734 ± 0.15
G45R	-0.723 ± 0.085
G45S	-0.965 ± 0.11
G45T	-0.683 ± 0.12
G45V	-0.7 ± 0.088
G45W	-0.919 ± 0.19
W46A	-0.599 ± 0.086
W46C	-0.233 ± 0.3
W46D	-0.652 ± 0.2
W46E	-0.91 ± 0.14
W46F	-0.036 ± 0.23
W46G	-1.08 ± 0.1
W46I	-0.299 ± 0.16
W46K	-0.273 ± 0.14
W46M	-0.039 ± 0.095
W46Q	-0.37 ± 0.18
W46R	-0.17 ± 0.083
W46T	-0.437 ± 0.096
W46Y	-0.051 ± 0.22
